Laboratory results: the supplement of paper PMC7125110
± gives the standard error. Variants at the floor of the assay were thinned out.

B1: glmS ribozyme (parent)
chain: AUAAAAGCGCCAGAACUACAGAAAUGUAGUUGACGAGGAGGAGGUUUAUCGAAUUUUCGGCGGAUGCCUCCAAA

Assays:
Details in all cases: with glucosamine-6-phosphate
glucosamine-6-phosphate [1] = variants of: B1; experiment: self-cleavage kobs at 160 uM GlcN6P; higher = faster cleavage; RNA array
Procedure, shortened: (§1)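 E. coli RNA polymerase transcribed barcoded ribozyme variants in situ on sequenced MiSeq chips, which were tracked via a hybridised Cy3 probe at 37 °C. Tiles were imaged over ~14 h after glucosamine-6-phosphate (40 μM to 10 mM) in HEPES/KCl/Mg(OAc)2 buffer was flowed in. Normalised per-tile medians were fit to one- or two-exponential decays for kobs, and kcat and KM came from weighted Michaelis–Menten fits.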

glucosamine-6-phosphate [2] = variants of: B1; experiment: self-cleavage kobs at 640 uM GlcN6P; higher = faster cleavage; RNA array
Procedure, shortened: as §1

glucosamine-6-phosphate [3] = variants of: B1; experiment: self-cleavage kobs at 2500 uM GlcN6P; higher = faster cleavage; RNA array
Procedure, shortened: as §1

glucosamine-6-phosphate [4] = variants of: B1; experiment: self-cleavage kobs at 10000 uM GlcN6P; higher = faster cleavage; RNA array
Procedure, shortened: as §1

Variant	self-cleavage kobs at 160 uM GlcN6P (glucosamine-6-phosphate [1]) [s⁻¹]	self-cleavage kobs at 640 uM GlcN6P (glucosamine-6-phosphate [2]) [s⁻¹]	self-cleavage kobs at 2500 uM GlcN6P (glucosamine-6-phosphate [3]) [s⁻¹]	self-cleavage kobs at 10000 uM GlcN6P (glucosamine-6-phosphate [4]) [s⁻¹]
AUAAAAGAGCCAGAAUUACAGAAAUGUAUUUGACGAGGAGGAGGUUUAUCGAAUUUUCGGCAGAUGCCUCCAAA [C8A C16U G29U G62A]	< 1e-05	< 1e-05		
AUAAAAGCGCGAGAACUACAGAAAUGUAGUGGACGAGGAGGAGAUUUAUCGAAUUUUCGGCGGACGCCUCCAAA [C11G U31G G44A U65C]	< 1e-05	< 1e-05	< 1e-05	
AUAAACGCGCCAGGACUACAGAAAUGUACUUGACGAGGCGGAGGUUUAUCGAAAUUUCGGCGGAUGCCUCCAAA [A6C A14G G29C A39C U54A]	< 1e-05	< 1e-05		
AUAAAAGCGCCAGUACUACAGAAAUGUAGUUGACGCGGAGGAGGUUUAUCGAAUUUUCGGCGGUUGCCUCCAAA [A14U A36C A64U]	< 1e-05	< 1e-05		< 1e-05
AUAAAAGCGCCGGAACUACAGAAAUGUAGUUGACGAGUAGGAGGUUUAUCGUAUUUUCGGCGGUUGCCUCCAAA [A12G G38U A52U A64U]	< 1e-05	< 1e-05	< 1e-05	
AUAAAAGCGCCAGAACUACAGAAAUGUAGUUGACGAGGAGGAGGUUUAUCUAAUUUUCGGGGGAUGCCUCGAAA [G51U C61G C71G]	0.000101 ± 2.2e-05	0.000494 ± 0.00014	9.55e-05 ± 2.1e-05	
AUAAAAGCGCCAGAACUACAGAAAUGUAGUUGACGAGGAGGAGGAUUAUCGAAUUUCCGGCGGAUGCCUCCAAA [U45A U57C]	3.83e-05 ± 1.6e-05	3.94e-05 ± 8.9e-06	0.000268 ± 4.2e-05	0.000355 ± 4.8e-05
AUAAAAGCGUCACAAGUACAGAAAUGUAGUUAACGAGGAGGAGGUUUAUCGAAUUUUCGGCGGAUGCCUCCAAA [C10U G13C C16G G32A]	< 1e-05			
AUAAAAGCGCCGGAACUACAGAAAUGUAGUUGACGAGGAUGAGGUUUAUCGAAUUUUCGGCCGAUGCCUCCAAA [A12G G40U G62C]	< 1e-05	< 1e-05	< 1e-05	
AUAAAAGCGCCAGAACUACAGAAAUGUAGUUGACGAGGAGGAGUUUUACCGAAUUUUCGGCGGAUGCCUCCAAA [G44U U49C]	< 1e-05	< 1e-05		< 1e-05
AUAAAAGCGCCUGAACUACAGAAAUGUAGUUGACGAGGAGGAGGUCUAUCGAAUUUUCGGCGGAUGACUCCAAA [A12U U46C C67A]	0.00011 ± 2.6e-05		0.00113 ± 0.0002	
AUAAAAGCUUCAGAAUUACAGAAAUGUAGUUGACGAGGAGGAGGUUUAUCGAAUUUUCGGCGGAUGCCUCCAAA [G9U C10U C16U]	< 1e-05		< 1e-05	
AUAAAAGCUCCAGAACUACAGAAAUGUAGUAGACGAGGAGGAGGUUUAUCGAAUUUUCGGCGGAGGCCUCCAAA [G9U U31A U65G]	< 1e-05	< 1e-05	< 1e-05	
AUAAAGGCGCCCGAACUACAGAAAUGUAGUUGACGAGGAAGAGGUUUAUCGAAUUUUCGGCGGAUGCCUCCAAA [A6G A12C G40A]	< 1e-05	< 1e-05	< 1e-05	
